# Experimental data reported in US20080085863A1 (WISCONSIN ALUMNI RESEARCH FOUNDATION, published 2008).
# T1: recombinant mutant α2-macroglobulin with the native bait region replaced by sequences flanking the human probiglycan BMP-1 cleavage site (b-α2M)
# T1 chain: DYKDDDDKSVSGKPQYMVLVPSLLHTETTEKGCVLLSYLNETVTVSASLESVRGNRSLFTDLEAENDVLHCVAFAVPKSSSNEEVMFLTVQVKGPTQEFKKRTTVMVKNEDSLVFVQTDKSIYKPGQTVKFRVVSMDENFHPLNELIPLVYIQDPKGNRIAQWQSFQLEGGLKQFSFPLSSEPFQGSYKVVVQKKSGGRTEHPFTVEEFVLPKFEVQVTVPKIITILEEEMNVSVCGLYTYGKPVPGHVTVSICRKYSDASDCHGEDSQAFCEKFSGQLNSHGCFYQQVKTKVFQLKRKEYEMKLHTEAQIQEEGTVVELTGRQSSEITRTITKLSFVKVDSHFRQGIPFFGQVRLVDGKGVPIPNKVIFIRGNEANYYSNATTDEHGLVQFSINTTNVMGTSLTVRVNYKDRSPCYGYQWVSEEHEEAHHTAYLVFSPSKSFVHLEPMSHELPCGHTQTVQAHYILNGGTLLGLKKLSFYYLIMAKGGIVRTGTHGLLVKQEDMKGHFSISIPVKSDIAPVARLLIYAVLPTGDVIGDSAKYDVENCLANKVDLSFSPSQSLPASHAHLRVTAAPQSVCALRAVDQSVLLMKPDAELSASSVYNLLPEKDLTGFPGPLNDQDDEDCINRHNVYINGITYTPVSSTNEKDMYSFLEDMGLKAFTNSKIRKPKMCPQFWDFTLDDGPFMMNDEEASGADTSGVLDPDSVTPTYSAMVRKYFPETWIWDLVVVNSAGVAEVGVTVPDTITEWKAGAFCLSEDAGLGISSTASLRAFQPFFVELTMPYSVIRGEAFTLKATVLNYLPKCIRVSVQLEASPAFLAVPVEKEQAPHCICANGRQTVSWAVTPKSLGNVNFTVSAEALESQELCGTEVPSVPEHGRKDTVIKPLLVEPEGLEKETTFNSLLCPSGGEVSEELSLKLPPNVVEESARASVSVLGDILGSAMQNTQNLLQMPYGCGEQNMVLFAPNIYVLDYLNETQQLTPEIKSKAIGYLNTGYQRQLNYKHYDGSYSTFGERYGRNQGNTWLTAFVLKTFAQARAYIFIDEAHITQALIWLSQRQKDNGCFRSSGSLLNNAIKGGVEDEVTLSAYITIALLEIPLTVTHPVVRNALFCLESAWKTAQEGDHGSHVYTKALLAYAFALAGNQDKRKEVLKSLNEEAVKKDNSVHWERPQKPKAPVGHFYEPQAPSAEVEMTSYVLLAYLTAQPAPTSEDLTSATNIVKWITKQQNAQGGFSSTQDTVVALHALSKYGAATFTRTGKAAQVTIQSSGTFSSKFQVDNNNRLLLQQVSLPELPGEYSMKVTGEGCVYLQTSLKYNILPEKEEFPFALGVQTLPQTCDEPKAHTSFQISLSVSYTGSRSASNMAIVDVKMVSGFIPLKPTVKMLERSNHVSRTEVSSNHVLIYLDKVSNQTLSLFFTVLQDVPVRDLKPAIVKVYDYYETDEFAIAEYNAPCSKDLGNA
# T2: methylamine-treated human α2-macroglobulin
# T2 chain: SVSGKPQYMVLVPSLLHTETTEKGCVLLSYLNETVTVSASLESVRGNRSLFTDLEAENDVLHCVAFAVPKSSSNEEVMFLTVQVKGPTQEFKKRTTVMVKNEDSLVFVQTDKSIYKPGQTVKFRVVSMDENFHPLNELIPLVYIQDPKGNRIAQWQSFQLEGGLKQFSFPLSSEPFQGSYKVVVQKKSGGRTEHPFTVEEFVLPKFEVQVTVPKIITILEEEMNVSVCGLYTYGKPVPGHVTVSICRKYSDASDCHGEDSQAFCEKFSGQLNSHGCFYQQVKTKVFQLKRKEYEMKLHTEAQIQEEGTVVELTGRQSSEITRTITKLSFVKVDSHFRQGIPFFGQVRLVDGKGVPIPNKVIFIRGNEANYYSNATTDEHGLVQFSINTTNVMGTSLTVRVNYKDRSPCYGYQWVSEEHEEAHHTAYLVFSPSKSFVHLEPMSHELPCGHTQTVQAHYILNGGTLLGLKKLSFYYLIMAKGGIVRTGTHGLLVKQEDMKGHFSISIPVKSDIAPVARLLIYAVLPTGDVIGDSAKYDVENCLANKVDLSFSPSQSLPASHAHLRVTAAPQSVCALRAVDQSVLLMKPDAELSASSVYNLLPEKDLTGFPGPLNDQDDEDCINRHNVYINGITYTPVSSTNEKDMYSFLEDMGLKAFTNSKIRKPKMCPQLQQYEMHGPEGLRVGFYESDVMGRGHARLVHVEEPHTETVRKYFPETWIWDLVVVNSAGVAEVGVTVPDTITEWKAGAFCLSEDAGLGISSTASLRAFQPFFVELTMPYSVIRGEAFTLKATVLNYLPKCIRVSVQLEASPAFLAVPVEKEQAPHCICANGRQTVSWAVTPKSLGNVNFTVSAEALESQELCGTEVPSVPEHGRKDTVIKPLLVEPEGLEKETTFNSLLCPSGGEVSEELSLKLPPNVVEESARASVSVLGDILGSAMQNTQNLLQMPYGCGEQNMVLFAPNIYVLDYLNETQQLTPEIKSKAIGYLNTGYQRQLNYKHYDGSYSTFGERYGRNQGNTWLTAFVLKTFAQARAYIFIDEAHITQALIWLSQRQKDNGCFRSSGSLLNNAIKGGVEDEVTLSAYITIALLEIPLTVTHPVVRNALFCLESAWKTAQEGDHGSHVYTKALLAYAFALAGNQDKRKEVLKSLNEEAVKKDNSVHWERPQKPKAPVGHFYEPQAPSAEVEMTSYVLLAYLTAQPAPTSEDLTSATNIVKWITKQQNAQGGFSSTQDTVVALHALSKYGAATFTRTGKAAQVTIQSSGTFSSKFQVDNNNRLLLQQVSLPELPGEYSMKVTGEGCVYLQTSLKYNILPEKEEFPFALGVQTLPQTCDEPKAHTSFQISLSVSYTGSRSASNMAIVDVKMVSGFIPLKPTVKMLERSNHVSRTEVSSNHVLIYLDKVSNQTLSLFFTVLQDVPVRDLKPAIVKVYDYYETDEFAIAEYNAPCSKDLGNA
# T3: human α2-macroglobulin from plasma (Sigma-Aldrich)
# T3 chain: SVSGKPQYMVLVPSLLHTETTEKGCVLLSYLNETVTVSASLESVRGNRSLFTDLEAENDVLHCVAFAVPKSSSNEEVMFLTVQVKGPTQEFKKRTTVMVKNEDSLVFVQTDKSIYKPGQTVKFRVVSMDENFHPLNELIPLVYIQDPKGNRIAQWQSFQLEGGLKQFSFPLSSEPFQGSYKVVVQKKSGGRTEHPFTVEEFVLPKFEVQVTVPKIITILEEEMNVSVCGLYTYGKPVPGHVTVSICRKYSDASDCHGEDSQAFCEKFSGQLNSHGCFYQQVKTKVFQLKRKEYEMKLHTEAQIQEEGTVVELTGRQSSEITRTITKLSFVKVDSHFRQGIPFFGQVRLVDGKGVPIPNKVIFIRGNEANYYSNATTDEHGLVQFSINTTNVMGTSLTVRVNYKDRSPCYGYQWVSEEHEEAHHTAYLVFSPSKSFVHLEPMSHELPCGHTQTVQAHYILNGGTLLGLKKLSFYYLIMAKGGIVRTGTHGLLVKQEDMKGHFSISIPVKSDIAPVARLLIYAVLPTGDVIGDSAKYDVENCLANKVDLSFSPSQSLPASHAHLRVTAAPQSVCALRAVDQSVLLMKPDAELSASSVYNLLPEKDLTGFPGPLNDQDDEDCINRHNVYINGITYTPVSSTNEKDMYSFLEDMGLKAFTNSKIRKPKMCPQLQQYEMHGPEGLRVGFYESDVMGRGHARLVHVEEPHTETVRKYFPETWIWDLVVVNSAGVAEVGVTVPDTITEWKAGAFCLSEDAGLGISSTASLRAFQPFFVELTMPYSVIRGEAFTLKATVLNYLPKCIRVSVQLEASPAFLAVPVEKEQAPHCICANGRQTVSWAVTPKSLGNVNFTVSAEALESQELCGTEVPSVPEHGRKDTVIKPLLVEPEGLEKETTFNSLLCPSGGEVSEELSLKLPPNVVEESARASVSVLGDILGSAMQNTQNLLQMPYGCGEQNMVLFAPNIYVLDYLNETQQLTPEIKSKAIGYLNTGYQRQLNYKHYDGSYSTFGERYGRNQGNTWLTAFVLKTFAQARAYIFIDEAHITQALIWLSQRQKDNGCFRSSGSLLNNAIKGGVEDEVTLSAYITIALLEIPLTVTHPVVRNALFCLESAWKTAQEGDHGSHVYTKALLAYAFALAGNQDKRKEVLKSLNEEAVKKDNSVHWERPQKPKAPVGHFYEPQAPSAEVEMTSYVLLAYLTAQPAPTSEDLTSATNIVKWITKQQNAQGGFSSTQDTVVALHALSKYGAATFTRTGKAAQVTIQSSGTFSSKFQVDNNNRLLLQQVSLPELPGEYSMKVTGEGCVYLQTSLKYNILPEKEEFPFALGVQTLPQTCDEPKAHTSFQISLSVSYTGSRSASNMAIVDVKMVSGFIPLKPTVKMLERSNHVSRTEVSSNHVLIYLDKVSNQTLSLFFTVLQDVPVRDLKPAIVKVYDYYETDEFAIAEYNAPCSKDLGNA
# T4: recombinant wild type α2-macroglobulin (FLAG-tagged)
# T4 chain: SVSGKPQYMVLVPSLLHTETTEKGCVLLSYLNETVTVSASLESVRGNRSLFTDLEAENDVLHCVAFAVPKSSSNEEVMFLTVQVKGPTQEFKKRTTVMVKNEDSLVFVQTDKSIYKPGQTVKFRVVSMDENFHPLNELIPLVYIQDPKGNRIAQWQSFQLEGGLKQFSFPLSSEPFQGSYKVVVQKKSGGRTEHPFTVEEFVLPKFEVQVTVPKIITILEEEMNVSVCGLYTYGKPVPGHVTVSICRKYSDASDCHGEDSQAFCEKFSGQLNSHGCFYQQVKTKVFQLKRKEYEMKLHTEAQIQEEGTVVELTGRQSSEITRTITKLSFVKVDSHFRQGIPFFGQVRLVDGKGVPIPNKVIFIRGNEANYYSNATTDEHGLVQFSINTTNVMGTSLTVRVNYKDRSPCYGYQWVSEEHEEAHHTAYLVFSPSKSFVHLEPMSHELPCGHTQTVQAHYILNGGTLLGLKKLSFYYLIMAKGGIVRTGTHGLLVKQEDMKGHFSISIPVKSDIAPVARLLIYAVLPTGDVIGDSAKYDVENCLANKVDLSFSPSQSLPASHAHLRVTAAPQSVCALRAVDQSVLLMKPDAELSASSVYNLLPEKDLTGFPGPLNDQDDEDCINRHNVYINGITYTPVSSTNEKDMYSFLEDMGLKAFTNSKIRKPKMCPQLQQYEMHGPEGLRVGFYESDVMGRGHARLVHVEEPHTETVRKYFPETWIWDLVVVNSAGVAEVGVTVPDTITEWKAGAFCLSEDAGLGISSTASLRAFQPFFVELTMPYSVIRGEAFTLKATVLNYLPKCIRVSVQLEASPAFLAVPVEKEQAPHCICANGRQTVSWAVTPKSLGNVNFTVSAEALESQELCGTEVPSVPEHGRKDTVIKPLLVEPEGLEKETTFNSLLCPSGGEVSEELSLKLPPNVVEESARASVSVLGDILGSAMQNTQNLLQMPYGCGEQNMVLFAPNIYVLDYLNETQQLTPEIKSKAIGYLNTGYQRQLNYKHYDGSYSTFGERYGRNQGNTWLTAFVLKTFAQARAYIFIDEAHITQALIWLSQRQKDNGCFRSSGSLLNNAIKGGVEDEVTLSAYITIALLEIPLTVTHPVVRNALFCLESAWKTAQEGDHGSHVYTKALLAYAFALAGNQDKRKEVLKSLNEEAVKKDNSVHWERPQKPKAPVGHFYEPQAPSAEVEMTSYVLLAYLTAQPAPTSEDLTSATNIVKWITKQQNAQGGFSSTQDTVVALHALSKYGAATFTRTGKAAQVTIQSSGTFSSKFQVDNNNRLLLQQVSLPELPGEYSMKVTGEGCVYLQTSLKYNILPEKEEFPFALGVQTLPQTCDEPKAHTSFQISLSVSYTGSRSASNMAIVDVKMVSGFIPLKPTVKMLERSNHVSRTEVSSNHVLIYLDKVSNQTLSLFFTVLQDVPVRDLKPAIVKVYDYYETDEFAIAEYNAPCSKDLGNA
# Assays:
# [1] = molecular target: T1, recombinant mutant α2-macroglobulin …
# [2] = molecular target: T2, methylamine-treated human …
# [3] = molecular target: T1, recombinant mutant α2-macroglobulin …; experiment: 2 hour co-incubation of 40 nM 35S-BMP-1 with 40 nM α2M, SDS-PAGE autofluorogram
# [4] = molecular target: T3, human α2-macroglobulin from plasma …; experiment: as above
# [5] = molecular target: T4, recombinant wild type α2-macroglobulin …; experiment: as above
protein,measurement,setting,value
Flag-tagged recombinant bone morphogenetic protein-1 (BMP-1) (protein) AATSRPERVWPDGVIPFVIGGNFTGSQRAVFRQAMRHWEKHTCVTFLERTDEDSYIVFTYRPCGCCSYVGRRGGGPQAISIGKNCDKFGIVVHELGHVVGFWHEHTRPDRDRHVSIVRENIQPGQEYNFLKMEPQEVESLGETYDFDSIMHYARNTFSRGIFLDTIVPKYEVNGVKPPIGQRTRLSKGDIAQARKLYKCPACGETLQDSTGNFSSPEYPNGYSAHMHCVWRISVTPGEKIILNFTSLDLYRSRLCWYDYVEVRDGFWRKAPLRGRFCGSKLPEPIVSTDSRLWVEFRSSSNWVGKGFFAVYEAICGGDVKKDYGHIQSPNYPDDYRPSKVCIWRIQVSEGFHVGLTFQSFEIERHDSCAYDYLEVRDGHSESSTLIGRYCGYEKPDDIKSTSSRLWLKFVSDGSINKAGFAVNFFKEVDECSRPNRGGCEQRCLNTLGSYKCSCDPGYELAPDKRRCEAACGGFLTKLNGSITSPGWPKEYPPNKNCIWQLVAPTQYRISLQFDFFETEGNDVCKYDFVEVRSGLTADSKLHGKFCGSEKPEVITSQYNNMRVEFKSDNTVSKKGFKAHFFSEKRPALQPPRGRPHQLKFRVQKRNRTPQ,"cleavage of α2M by BMP-1 (Western blot, time course)",[1],b-α2M is cleaved by BMP-1 more readily than recombinant wild-type α2M (rα2M)
same,cleavage of α2M by BMP-1 (SDS-PAGE),[2],BMP-1 was unable to cleave methylamine-treated α2M
same,percent of BMP-1 incorporated into complexes,[3],42% of sample
same,percent of BMP-1 incorporated into complexes,[4],28% of sample
same,percent of BMP-1 incorporated into complexes,[5],12% of sample
